According to patent US20180037645A1 (Bristol-Myers Squibb, published 2018):
Where a chain is given by its changes, count along the chain named. Values belong to the binder of their own block, whether it stands above or below them.

Biological target: human IL-23Rα / human IL-12Rβ1 on BaF3 transfectants (human, UniProt Q5VWK5 24-629; P42701 24-662)
Test: cell-based or functional assay

human IL-23Rα / human IL-12Rβ1 on BaF3 transfectants, sequence (Q5VWK5 24-629, chain 1 of 2, other chains not shown): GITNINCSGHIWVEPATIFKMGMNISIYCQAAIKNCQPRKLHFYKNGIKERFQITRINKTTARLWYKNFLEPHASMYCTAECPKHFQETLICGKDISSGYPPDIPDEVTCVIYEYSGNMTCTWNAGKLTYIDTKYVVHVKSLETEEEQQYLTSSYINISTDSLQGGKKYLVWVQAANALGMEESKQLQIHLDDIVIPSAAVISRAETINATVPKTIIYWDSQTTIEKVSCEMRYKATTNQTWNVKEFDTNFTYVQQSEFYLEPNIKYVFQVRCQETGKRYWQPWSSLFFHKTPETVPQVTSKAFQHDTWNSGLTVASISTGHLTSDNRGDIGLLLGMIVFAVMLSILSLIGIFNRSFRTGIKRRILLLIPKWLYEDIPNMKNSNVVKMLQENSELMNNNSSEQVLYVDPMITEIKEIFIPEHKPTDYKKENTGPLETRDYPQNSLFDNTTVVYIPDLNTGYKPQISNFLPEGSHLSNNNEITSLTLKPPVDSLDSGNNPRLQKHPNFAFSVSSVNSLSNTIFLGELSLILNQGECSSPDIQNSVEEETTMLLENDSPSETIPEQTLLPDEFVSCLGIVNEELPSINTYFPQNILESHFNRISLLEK

- EC50, pSTAT3 in BaF3/huIL-23Rα/huIL-12Rβ1 transfectants: 19 pM
B3: IL-23 alanine shave mutant M10 (ligand, human)
chain 1: RAVPGGSSPAWTQCQQLSQKLCTLAWSAHPLVGAAALREEGDEETTNDVPHIQCGDGCDPQGLRDNSQFCLQRIHQGLIFYEKLLGSDIFTGEPSLLPDSPVGQLHASLLGLSQLLQPEGHHWETQQIPSLSPSQPWQRLLLRAKILRSLQAFVAVAARVFAHGAATLSP
chain 2: IWELKKDVYVVELDWYPDAPGEMVVLTCDTPEEDGITWTLDQSSEVLGSGKTLTIQVKEFGDAGQYTCHKGGEVLSHSLLLLHKKEDGIWSTDILKDQKEPKNKTFLRCEAKNYSGRFTCWWLTTISTDLTFSVKSSRGSSDPQGVTCGAATLSAERVRGDNKEYEYSVECQEDSACPAAEESLPIEVMVDAVHKLKYENYTSSFFIRDIIKPDPPKNLQLKPLKNSRQVEVSWEYPDTWSTPHSYFSLTFCVQVQGKSKREKKDRVFTDKTSATVICRKNASISVRAQDRYYSSSWSEWASVPCS

- EC50, pSTAT3 in BaF3/huIL-23Rα/huIL-12Rβ1 transfectants: 33 pM
B4: IL-23 alanine shave mutant M9 (ligand, human)
chain 1: B3 chain 1 with A34H, A35M, A36D, L97A, D99A, Q104A, A144F
chain 2: B3 chain 2

The remaining lines, values behind:

B1: IL-23 alanine shave mutant M5 (ligand, human)
chain 1: B3 chain 1 with A36D, E93A, L97A, D99A, A144F
chain 2: B3 chain 2
- EC50, pSTAT3 in BaF3/huIL-23Rα/huIL-12Rβ1 transfectants: 26 pM

B2: IL-23 alanine shave mutant M7 (ligand, human)
chain 1: B3 chain 1 with A34H, A35M, A36D, W123A, E124A, T125A, Q126A, Q127A, A144F
chain 2: B3 chain 2
- EC50, pSTAT3 in BaF3/huIL-23Rα/huIL-12Rβ1 transfectants: 21 pM
